{"source": "the supplement of paper PMC7877785", "assay": "self-splicing fitness, log relative to wild type (ln ratio); higher = more splicing; Tetrahymena group I intron in knt gene, E. coli kanamycin selection, DiMSum; sequences stand for … in CUCUCU…GGAGGGAAAAGUUAUCAGGCAUGCACCUGGUAGCUAGUCUUUAAACCAAUAGAUUGCAUCGGUUUAAAAGGCAAGACCGUCAAAUUGCGGGAAAGGGGUCAACAGCCGUUCAGUACCAAGUCUCAGGGGAAACUUUGAGAUGGCCUUGCAAAGGGUAUGGUAAUAAGCUGACGGACAUGGUCCUAACCACGCAGCCAAGUCCUAAGUCAACAGAUCUUCUGUUGAUAUGGAUGCAGUUCACAGACUAAAUGUCGGUCGGGGAAGAUGUAUUCUUCUCAUAAGAUAUAGUCGGACCUCUCCUUAAUGGGAGCUAGCGGAUGAAGUGAUGCAACACUGGAGCCGCUGGGAACUAAUUUGUAUGCGAAAGUAUAUUGAUUAGUUUUGGAGUACUCGUGGUCG", "procedure,_shortened": "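Fitness was computed with DiMSum as the error-weighted combination of replicate fold changes, kanamycin versus none, each normalised to wild type. The library randomised all eight intron nucleotides of the P1ex region, with the intron placed in the knt kanamycin-resistance gene on pET-22b(+) in E. coli BL21(DE3). Six replicate transformations were grown overnight at 37°C or 30°C on LB agar with or without 25 μg/mL kanamycin, plus 100 μg/mL carbenicillin, 50 μM IPTG and 0.2% rhamnose. Pooled colonies were amplicon-sequenced on an Illumina HiSeq 2500.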", "note": "± gives the uncertainty stated by the source."}
{"sequence": "CUAGAGCAAUAUUACGGUAU", "values": [{"measurement": "self-splicing fitness (ln)", "setting": "37 °C", "value": "-1.76 ± 0.49"}]}
{"sequence": "ACCAAGCAAUAUUACGUCCC", "values": [{"measurement": "self-splicing fitness (ln)", "setting": "30 °C", "value": "-2.14 ± 0.12"}, {"measurement": "self-splicing fitness (ln)", "setting": "37 °C", "value": "-0.924 ± 0.17"}]}
{"sequence": "AUUUAGCAAUAUUACGACUA", "values": [{"measurement": "self-splicing fitness (ln)", "setting": "30 °C", "value": "-0.0865 ± 0.18"}, {"measurement": "self-splicing fitness (ln)", "setting": "37 °C", "value": "-0.454 ± 0.15"}]}
{"sequence": "CUUCAGCAAUAUUACGAACA", "values": [{"measurement": "self-splicing fitness (ln)", "setting": "30 °C", "value": "-0.812 ± 0.18"}, {"measurement": "self-splicing fitness (ln)", "setting": "37 °C", "value": "-1.3 ± 0.21"}]}
{"sequence": "UGUAAGCAAUAUUACGUAGC", "values": [{"measurement": "self-splicing fitness (ln)", "setting": "37 °C", "value": "-1.96 ± 0.45"}]}
{"sequence": "ACCUAGCAAUAUUACGUGGU", "values": [{"measurement": "self-splicing fitness (ln)", "setting": "30 °C", "value": "-3.6 ± 0.14"}, {"measurement": "self-splicing fitness (ln)", "setting": "37 °C", "value": "-2.95 ± 0.16"}]}
{"sequence": "CAGGAGCAAUAUUACGAUAC", "values": [{"measurement": "self-splicing fitness (ln)", "setting": "30 °C", "value": "-2.81 ± 0.4"}]}
{"sequence": "GUACAGCAAUAUUACGAACA", "values": [{"measurement": "self-splicing fitness (ln)", "setting": "30 °C", "value": "-1.51 ± 0.11"}, {"measurement": "self-splicing fitness (ln)", "setting": "37 °C", "value": "-0.736 ± 0.11"}]}
{"sequence": "UGUCAGCAAUAUUACGCCUG", "values": [{"measurement": "self-splicing fitness (ln)", "setting": "30 °C", "value": "0.351 ± 0.072"}, {"measurement": "self-splicing fitness (ln)", "setting": "37 °C", "value": "0.582 ± 0.11"}]}
{"sequence": "GCGCAGCAAUAUUACGGUAC", "values": [{"measurement": "self-splicing fitness (ln)", "setting": "30 °C", "value": "-1.22 ± 0.082"}, {"measurement": "self-splicing fitness (ln)", "setting": "37 °C", "value": "0.195 ± 0.095"}]}
{"sequence": "CAAAAGCAAUAUUACGAGGU", "values": [{"measurement": "self-splicing fitness (ln)", "setting": "30 °C", "value": "-3.46 ± 0.15"}, {"measurement": "self-splicing fitness (ln)", "setting": "37 °C", "value": "-2.91 ± 0.21"}]}
{"sequence": "CAUGAGCAAUAUUACGUGAU", "values": [{"measurement": "self-splicing fitness (ln)", "setting": "30 °C", "value": "-2.58 ± 0.14"}, {"measurement": "self-splicing fitness (ln)", "setting": "37 °C", "value": "-2.68 ± 0.2"}]}
{"sequence": "CGCAAGCAAUAUUACGAGAU", "values": [{"measurement": "self-splicing fitness (ln)", "setting": "30 °C", "value": "-3.04 ± 0.38"}, {"measurement": "self-splicing fitness (ln)", "setting": "37 °C", "value": "-1.59 ± 0.26"}]}
{"sequence": "CCUUAGCAAUAUUACGGACU", "values": [{"measurement": "self-splicing fitness (ln)", "setting": "30 °C", "value": "-2.41 ± 0.19"}, {"measurement": "self-splicing fitness (ln)", "setting": "37 °C", "value": "-2.89 ± 0.43"}]}
{"sequence": "CCACAGCAAUAUUACGGCAU", "values": [{"measurement": "self-splicing fitness (ln)", "setting": "30 °C", "value": "-3.72 ± 0.16"}, {"measurement": "self-splicing fitness (ln)", "setting": "37 °C", "value": "-2.54 ± 0.18"}]}
{"sequence": "GCUUAGCAAUAUUACGGUUG", "values": [{"measurement": "self-splicing fitness (ln)", "setting": "30 °C", "value": "-3.95 ± 0.18"}, {"measurement": "self-splicing fitness (ln)", "setting": "37 °C", "value": "-1.91 ± 0.12"}]}
{"sequence": "GAGAAGCAAUAUUACGAGUU", "values": [{"measurement": "self-splicing fitness (ln)", "setting": "30 °C", "value": "-1.95 ± 0.12"}, {"measurement": "self-splicing fitness (ln)", "setting": "37 °C", "value": "-1.63 ± 0.13"}]}
{"sequence": "GGAAAGCAAUAUUACGCACU", "values": [{"measurement": "self-splicing fitness (ln)", "setting": "30 °C", "value": "-1.35 ± 0.22"}, {"measurement": "self-splicing fitness (ln)", "setting": "37 °C", "value": "-1.57 ± 0.3"}]}
{"sequence": "AUCUAGCAAUAUUACGAGAC", "values": [{"measurement": "self-splicing fitness (ln)", "setting": "30 °C", "value": "-4.67 ± 0.42"}, {"measurement": "self-splicing fitness (ln)", "setting": "37 °C", "value": "-3.22 ± 0.3"}]}
{"sequence": "CUCAAGCAAUAUUACGAAUU", "values": [{"measurement": "self-splicing fitness (ln)", "setting": "30 °C", "value": "-4.18 ± 0.28"}, {"measurement": "self-splicing fitness (ln)", "setting": "37 °C", "value": "-3.03 ± 0.29"}]}
{"sequence": "AAAAAGCAAUAUUACGACGG", "values": [{"measurement": "self-splicing fitness (ln)", "setting": "30 °C", "value": "-1.76 ± 0.17"}, {"measurement": "self-splicing fitness (ln)", "setting": "37 °C", "value": "-1.12 ± 0.21"}]}
{"sequence": "CAUUAGCAAUAUUACGAAGU", "values": [{"measurement": "self-splicing fitness (ln)", "setting": "37 °C", "value": "-1.37 ± 0.44"}]}
{"sequence": "UACUAGCAAUAUUACGGGUU", "values": [{"measurement": "self-splicing fitness (ln)", "setting": "30 °C", "value": "-2.34 ± 0.18"}, {"measurement": "self-splicing fitness (ln)", "setting": "37 °C", "value": "-1.78 ± 0.16"}]}
{"sequence": "GAACAGCAAUAUUACGGCUU", "values": [{"measurement": "self-splicing fitness (ln)", "setting": "30 °C", "value": "-0.492 ± 0.064"}, {"measurement": "self-splicing fitness (ln)", "setting": "37 °C", "value": "0.239 ± 0.087"}]}
{"sequence": "GACCAGCAAUAUUACGGUGG", "values": [{"measurement": "self-splicing fitness (ln)", "setting": "30 °C", "value": "-2.38 ± 0.077"}, {"measurement": "self-splicing fitness (ln)", "setting": "37 °C", "value": "-0.875 ± 0.087"}]}
{"sequence": "UCGCAGCAAUAUUACGGGUG", "values": [{"measurement": "self-splicing fitness (ln)", "setting": "30 °C", "value": "-1.16 ± 0.053"}, {"measurement": "self-splicing fitness (ln)", "setting": "37 °C", "value": "-1.03 ± 0.074"}]}
{"sequence": "ACAAAGCAAUAUUACGGCCG", "values": [{"measurement": "self-splicing fitness (ln)", "setting": "30 °C", "value": "-0.257 ± 0.09"}, {"measurement": "self-splicing fitness (ln)", "setting": "37 °C", "value": "0.0921 ± 0.14"}]}
{"sequence": "GUUGAGCAAUAUUACGACAA", "values": [{"measurement": "self-splicing fitness (ln)", "setting": "30 °C", "value": "-2.38 ± 0.33"}, {"measurement": "self-splicing fitness (ln)", "setting": "37 °C", "value": "-2.54 ± 0.44"}]}
{"sequence": "CAUAAGCAAUAUUACGGCUG", "values": [{"measurement": "self-splicing fitness (ln)", "setting": "30 °C", "value": "-0.37 ± 0.082"}, {"measurement": "self-splicing fitness (ln)", "setting": "37 °C", "value": "0.0915 ± 0.12"}]}
{"sequence": "UUGCAGCAAUAUUACGGUGU", "values": [{"measurement": "self-splicing fitness (ln)", "setting": "30 °C", "value": "-4.16 ± 0.21"}, {"measurement": "self-splicing fitness (ln)", "setting": "37 °C", "value": "-2.72 ± 0.18"}]}
{"sequence": "UACCAGCAAUAUUACGGGGG", "values": [{"measurement": "self-splicing fitness (ln)", "setting": "30 °C", "value": "-2.5 ± 0.14"}, {"measurement": "self-splicing fitness (ln)", "setting": "37 °C", "value": "-1.77 ± 0.13"}]}
{"sequence": "CAUGAGCAAUAUUACGCACU", "values": [{"measurement": "self-splicing fitness (ln)", "setting": "37 °C", "value": "-1.96 ± 0.24"}]}
{"sequence": "GCGUAGCAAUAUUACGAGCG", "values": [{"measurement": "self-splicing fitness (ln)", "setting": "30 °C", "value": "-0.887 ± 0.15"}, {"measurement": "self-splicing fitness (ln)", "setting": "37 °C", "value": "-1.62 ± 0.17"}]}
{"sequence": "CUCAAGCAAUAUUACGUUGG", "values": [{"measurement": "self-splicing fitness (ln)", "setting": "30 °C", "value": "-2.93 ± 0.12"}, {"measurement": "self-splicing fitness (ln)", "setting": "37 °C", "value": "-1.5 ± 0.13"}]}
{"sequence": "AACGAGCAAUAUUACGGUGC", "values": [{"measurement": "self-splicing fitness (ln)", "setting": "30 °C", "value": "-3.15 ± 0.3"}, {"measurement": "self-splicing fitness (ln)", "setting": "37 °C", "value": "-2.69 ± 0.33"}]}
{"sequence": "GCUGAGCAAUAUUACGCCUG", "values": [{"measurement": "self-splicing fitness (ln)", "setting": "30 °C", "value": "-1.28 ± 0.23"}]}
{"sequence": "GAGAAGCAAUAUUACGUCUG", "values": [{"measurement": "self-splicing fitness (ln)", "setting": "30 °C", "value": "-0.739 ± 0.13"}, {"measurement": "self-splicing fitness (ln)", "setting": "37 °C", "value": "0.277 ± 0.15"}]}
{"sequence": "ACGCAGCAAUAUUACGCGAU", "values": [{"measurement": "self-splicing fitness (ln)", "setting": "30 °C", "value": "-3.38 ± 0.16"}, {"measurement": "self-splicing fitness (ln)", "setting": "37 °C", "value": "-2.22 ± 0.16"}]}
{"sequence": "CCGCAGCAAUAUUACGUUUA", "values": [{"measurement": "self-splicing fitness (ln)", "setting": "30 °C", "value": "-3.22 ± 0.18"}, {"measurement": "self-splicing fitness (ln)", "setting": "37 °C", "value": "-2.35 ± 0.14"}]}
{"sequence": "ACUAAGCAAUAUUACGCGUU", "values": [{"measurement": "self-splicing fitness (ln)", "setting": "30 °C", "value": "-3.36 ± 0.13"}, {"measurement": "self-splicing fitness (ln)", "setting": "37 °C", "value": "-1.58 ± 0.11"}]}
